# B1: Ovalbumin: ovalbumin protein payload (protein, UniProt P01012 2-386, looked up)
# Ovalbumin: GSIGAASMEFCFDVFKELKVHHANENIFYCPIAIMSALAMVYLGAKDSTRTQINKVVRFDKLPGFGDSIEAQCGTSVNVHSSLRDILNQITKPNDVYSFSLASRLYAEERYPILPEYLQCVKELYRGGLEPINFQTAADQARELINSWVESQTNGIIRNVLQPSSVDSQTAMVLVNAIVFKGLWEKAFKDEDTQAMPFRVTEQESKPVQMMYQIGLFRVASMASEKMKILELPFASGTMSMLVLLPDEVSGLEQLESIINFEKLTEWTSSNVMEERKIKVYLPRMKMEEKYNLTSVLMAMGITDVFSSSANLSGISSAESLKISQAVHAAHAEINEAGREVVGSAEAGVDAASVSEEFRADHPFLFCIKHIATNAVLFFGRCVSP
# What was measured:
# [1] = Encapsulation efficiency of proteins ensilicated in GPs with 100% TEOS; type: physicochemical; details: 100% TEOS prepolymerized at pH 2, SDS-PAGE
# Description: Dry GPs were mixed with a solution of 25 mg/mL protein in water (4 μL protein solution per mg GP, 100 μg protein per mg GP), incubated to allow for complete absorption of protein solution inside the hollow cavity of GPs, and then the samples were frozen and lyophilized. To maximize protein incorporation into GPs, the dry GP-OVA samples were hydrated with 2 μL water per mg GP, mixed, frozen, and lyophilized. TEOS (Millipore Sigma, Burlington, MA, USA; #86578, ≥99% purity, density 0.933 g/mL) was mixed with a 0.01 M HCl (pH 2) solution at a volume ratio of 2:1 (v/v) aqueous HCl:TEOS and the sample was incubated at 20° C. with constant mixing for one hour to allow for partial polymerization of TEOS. Then, the partially polymerized single phase TEOS solution was added to dry GP-protein (4 μL per mg GP) and the sample was incubated for one hour. GP ensilicated protein samples were suspended in 0.9% sterile saline (5 mg GP/mL), centrifuged and the supernatants were collected to quantify unencapsulated protein. The samples were then washed three more times in 0.9% sterile saline, suspended in 0.9% saline at 5 mg GP/mL and stored at 20° C.
# GP ensilicated protein was extracted and quantified by following the procedure described above for BSA. Proteins in the GP supernatants and pellets were quantified by SDS-PAGE.
# [2] = Ensilication (trapping) efficiency of BSA within GPs, quantified by SDS-PAGE; type: physicochemical; details: TEOS pre-polymerized at pH 2, TEOS:rBSA ratios of 1.3 to 24.9
# Description: The efficiency of ensilication of BSA within GPs was tested. […] The samples were mixed, incubated at room temperature for 30 minutes, frozen and lyophilized to remove solvent. The loading cycle was repeated by adding 10 μL of water to the dry fGP rBSA sample to draw payload within the matrix of the GP shell into the hollow GP cavity, the sample was mixed and lyophilized to remove solvent.
# TEOS was mixed with 0.01 M HCl solution (pH 2). The mixture was mixed for 1 hour to achieve TEOS prepolymerization and formation of a single aqueous phase in which the TEOS was close to its gel point. Solutions with different ratios of TEOS and 0.01 M HCl were prepared to target TEOS:rBSA weight ratios from 0 to 24.9. […]
# The ensilicated fGP-rBSA samples were washed three times with 0.9% saline. The ensilicated fGP rBSA pellets were evaluated by microscopy to assess efficient trapping of rBSA within the cavity of fGPs, and percent protein encapsulation was quantified by SDS-PAGE. […]
# Acid catalyzed TEOS forms long, linear polymers that easily entangle and gel. […] The percent of BSA trapped in GPs was measured as described above.
# GPs containing ensilicated fBSA were also prepared as described before at the optimal TEOS polymerization conditions with 0.01 M HCl (pH 2) for use as control. Percent of BSA trapped in GPs was measured as described above.
Molecule,% encapsulation efficiency in GPs [1] [%],percent of rBSA trapped in fGPs [2] [%]
Transferrin: transferrin protein payload,92 ± 8,–
rBSA: rhodamine labeled BSA payload,–,> 80
B1,97 ± 3,–

# Source: patent US20240058275A1, “NANO-SILICA - IN YEAST PARTICLE (YP) DRUG ENCAPSULATION APPROACH FOR IMPROVED THERMAL AND HYDROLASE STABILITY OF YP DRUG DELIVERY FORMULATIONS” (UNIVERSITY OF MASSACHUSETTS, priority 2022, published 2024)
